The values below come from article PMC10230788.

This test deals with glucagon receptor (rat ventricular myocardium) (rat (endogenous in Sprague-Dawley rat right ventricle)) (UniProt P30082).
Sequence of UniProt P30082 (P30082 27-485): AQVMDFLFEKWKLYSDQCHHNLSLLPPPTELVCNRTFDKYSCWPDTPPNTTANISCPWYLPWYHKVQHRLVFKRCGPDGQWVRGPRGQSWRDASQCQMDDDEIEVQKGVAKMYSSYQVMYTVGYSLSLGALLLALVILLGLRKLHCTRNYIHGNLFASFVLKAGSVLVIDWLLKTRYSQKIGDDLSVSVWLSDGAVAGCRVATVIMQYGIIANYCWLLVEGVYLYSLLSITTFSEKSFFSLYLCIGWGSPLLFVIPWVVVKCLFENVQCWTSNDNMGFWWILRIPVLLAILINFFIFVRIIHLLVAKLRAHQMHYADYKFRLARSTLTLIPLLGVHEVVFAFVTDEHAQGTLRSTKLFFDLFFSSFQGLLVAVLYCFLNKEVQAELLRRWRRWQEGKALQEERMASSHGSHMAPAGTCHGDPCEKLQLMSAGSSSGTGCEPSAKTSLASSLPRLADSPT

Sequence of glucagon (P01275 53-81): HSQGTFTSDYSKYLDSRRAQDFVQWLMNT

Consider “glucagon (from UniProt P01275 53-81) (ligand)”, for which the Emax of the inotropic response (percent increase in contractility over baseline) of rat right ventricle strips to glucagon (1–1000 nM), in the absence of IBMX amounted to 40%; the Emax of the inotropic response (percent increase in contractility over baseline) of rat right ventricle strips to glucagon (1–1000 nM), in the presence of 30 µM IBMX stood at 75%; the –log EC50 of the positive inotropic response (contractility) of electrically driven rat right ventricle strips to glucagon (1–1000 nM), glucagon alone is 7.1 –log EC50.
